According to publication PMC5477490:

Legend:
3E1 Fab, P01857;P01834 = details: parent: est. 100; read off a plot
[1] = target: HA ectodomain of A/Washington/05/2011(H1N1) (influenza A virus A/Washington/05/2011(H1N1)); assay: crystal structure
[2] = target: HA ectodomain of A/Washington/05/2011(H1N1) (influenza A virus A/Washington/05/2011(H1N1)); assay: not stated; purified HA ectodomain in solution; data in Supplementary Fig. 2

Substance	percent of parent (3E1 Fab, P01857;P01834) [%]	stoichiometry N [1]	stoichiometry N [2]
full-length, wild-type HA from A/Washington/05/2011 (H1N1) HA1:NAT	2		
full-length, wild-type HA from A/Washington/05/2011 (H1N1) HA2:D19N	7		
HA ectodomain of A/Washington/05/2011(H1N1) (domain or fragment)		3	3
full-length, wild-type HA from A/Washington/05/2011 (H1N1) HA2:I45F	1		
full-length, wild-type HA from A/Washington/05/2011 (H1N1) HA1:H18Q	1		
